Results taken from the supplement of paper PMC10567573.

B1: SMG5 (parent)
chain: TNPDLIIVCAQSSQSLWNRLSVLL
B2: TFE3 (parent)
chain: ELPNIKREISETEAKALLKERQKK

Variants of: B1
Test: protein stability index of a GFP-peptide fusion (GPS, HEK-293T) (PSI 1-6); higher = more stable
Conditions: c terminus: a fixed tail appended
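Note: lentivirally expressed fusions sorted by FACS into six bins by GFP to DsRed ratio, PSI derived from sequencing read proportions per bin multiplied by bin number.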

Protein stability index of substitutions, site by site:
V22: Q 1.65, S 2.36, G 1.81, N 1.58, Y 1.91, T 2.99, C 3.03, E 1.91, D 2.03, F 2.52, R 2.23, H 1.84, P 2.62, A 2, I 4.58, K 2.17, M 2.98, W 1.24, L 3.21
S21: C 2.21, H 2.52, Y 3.25, P 2.6, L 2.07, Q 2.87, A 3.16, V 2.88, R 2, N 3.04, E 3.57, K 2.19, W 2.75, I 3.08, T 3.07, M 1.58, G 3.14, F 3.03
L23: N 3.27, C 3.62, V 2.8, H 3.59, G 3.55, F 2.33, I 2.27, E 2.75, W 2.85, R 2.83, S 2.68, A 1.84, P 3.47, D 1.73, K 1.99
L24: W 2.26, S 1.38, F 2.86, Q 1.92, T 2.64, V 3.05, N 2.45, D 2.8, Y 1.85, A 2.73, R 1.93, M 3.19, H 2.54, E 3.27, G 2.84, P 1.38
L20: S 2.19, N 3.27, V 1.7, W 3.72, Q 2.08, H 1.7, K 2.77, T 2.02, P 2.92, M 2.24, I 2.41, Y 2.11

Variants of: B2
Test: as above
Conditions: c terminus: a fixed tail appended

Protein stability index: each site, then its substitutions
E13: Y 3.32, I 3.33, K 3.83, D 4.12, Q 4.34, N 3.83, M 3.71, L 3.06, R 3.43, T 4.34, V 3.45, A 4.83, F 3.26, G 4.58, H 4.65, S 4.13, P 3.92, C 2.74, W 2.56
A14: E 3.05, F 2.83, C 2.48, D 2.17, I 2.46, G 3, H 3.14
P3: Q 2.98, A 2.6, E 3.17, G 3.5, Y 3.04, W 2.43, C 2.43, F 2.84, L 2.02, I 1.34, R 3.75, T 3.57, H 2.57, V 2.32, M 1.93, D 2.89, N 4.13, S 3.44, K 3.82
E8: P 4.31, L 3.6, V 3.43, R 4.32, K 4.06, D 2.69, H 3.31, C 3.4, Y 3.68, W 2.21, G 3.09, T 3.46, S 3.69, M 3.32, I 3.39, A 2.49, N 3.46, Q 3.34, F 3.52
E11: L 2.79, A 2.89, D 2.45, R 2.5, W 2.91, V 2.43, C 2.87, K 3.48, Q 3.29, T 3.25, P 4.21, Y 3.16, F 3.43, G 3.45, I 3.05, N 2.99, S 3.61, H 3.1, M 2.78
I9: F 4.51, Q 4.83, M 2.25, V 3.64, T 4.49, S 4.68, Y 4.34, A 4.71, W 4.13, G 4.67, E 5.1, D 5.15, L 2.66, N 3.19, P 5.1, R 3.88, C 3.74, H 5.21, K 4.95
T12: C 2.51, F 3.78, Q 4.67, K 3.85, E 5.55, R 4.08, W 3.31, M 4.26, S 2.69, G 4.73, V 4.04, N 4.46, A 2.86, L 4, D 4.56, I 4.13, P 4.73, Y 4.15, H 4.58
N4: I 3.85, R 2.34, D 2.75, Y 3.29, M 2.83, H 2.84, V 3.86, W 3.35, F 3.14, C 2.32, L 3.34, Q 2.02, K 2.78, E 3.9, G 3.62, A 2.88, P 3.76, S 3.23, T 3.33
R7: M 2.63, Y 2.81, L 2.68, E 2.46, F 2.44, V 2.46, Q 2.4, K 2.44, S 2.49, G 2.2, A 2.55, D 2.95, T 3.51, H 3.27, C 2.97, P 4.86, I 3.2, W 2.84, N 2.58
S10: Q 2.68, E 2.15, N 3, C 3.2, G 3, F 2.65, M 2.12, Y 2.35, L 2.57, W 2.9, K 3, I 3.13, H 2.82, T 2.59, V 3.62, A 2.23, P 4.98, R 2.91, D 2.53
E1: N 2.75, I 3.59, A 3.19, T 3.6, R 3.51, H 2.66, D 2.65, F 2.21, Q 2.99, K 3.13, S 2.87, G 4.65, Y 2.82, L 2.29, M 2.39, V 3.57, P 4.81, W 3.01, C 3.12
L2: V 1.95, A 4.75, D 5.49, M 2.84, S 5.39, P 5.74, R 3.94, W 3.96, E 5.33, C 3.5, I 2.19, F 4.29, Q 3.88, G 5.23, T 4.71, H 4.51, N 5.12, Y 4.18, K 5.08
K6: W 2.01, C 2.33, E 4.11, Q 2.45, I 2.04, P 3.89, S 2.5, M 2.75, H 2.49, A 2.95, L 2.83, Y 2.65, N 2.81, V 2.24, G 2.81, R 2.02, F 2.79, T 3.05, D 4.36
I5: N 4.22, F 4.05, G 3.46, T 4.7, R 4.4, V 3.94, E 5.37, W 3.93, Y 4.3, H 4.61, A 4.81, P 4.91, S 4.98, Q 4.38, D 5.33, L 3.34, K 4.58, M 2.23, C 3.53
